Positions count from the first letter of the chain named. Read-outs that look alike come from different tables or passages of the source.
Experiments:
[1] = target: T1, DIX domain containing 1, transcript variant 2 (human, UniProt Q155Q3 220-683); test: protein array
T1 construct: on protein array; also called DIXDC1
T1 sequence: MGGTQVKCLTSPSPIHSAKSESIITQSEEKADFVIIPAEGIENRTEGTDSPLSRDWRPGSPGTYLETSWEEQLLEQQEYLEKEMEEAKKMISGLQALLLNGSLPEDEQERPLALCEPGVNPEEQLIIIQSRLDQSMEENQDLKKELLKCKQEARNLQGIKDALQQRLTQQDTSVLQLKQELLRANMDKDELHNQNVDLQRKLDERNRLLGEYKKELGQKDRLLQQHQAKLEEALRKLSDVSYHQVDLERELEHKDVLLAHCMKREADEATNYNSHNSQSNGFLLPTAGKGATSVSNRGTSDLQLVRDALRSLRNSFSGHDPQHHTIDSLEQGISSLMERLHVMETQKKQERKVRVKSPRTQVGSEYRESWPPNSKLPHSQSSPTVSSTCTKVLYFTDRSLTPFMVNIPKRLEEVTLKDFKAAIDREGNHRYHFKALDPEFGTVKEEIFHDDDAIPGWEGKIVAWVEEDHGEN

[2] = target: T2, Jupiter microtubule associated homolog 2 (human, UniProt Q9H910 1-190)
T2 construct: also called HN1L
T2 sequence: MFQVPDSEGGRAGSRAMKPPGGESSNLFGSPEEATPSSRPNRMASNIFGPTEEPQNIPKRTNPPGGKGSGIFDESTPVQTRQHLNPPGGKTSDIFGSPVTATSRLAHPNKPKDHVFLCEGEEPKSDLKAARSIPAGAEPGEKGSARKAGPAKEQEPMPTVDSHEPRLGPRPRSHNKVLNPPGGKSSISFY

[3] = target: T3, influenza virus NS1A binding protein (human, UniProt Q9Y6Y0 1-642); test: protein array
T3 construct: on protein array; also called IVNS1ABP
T3 sequence: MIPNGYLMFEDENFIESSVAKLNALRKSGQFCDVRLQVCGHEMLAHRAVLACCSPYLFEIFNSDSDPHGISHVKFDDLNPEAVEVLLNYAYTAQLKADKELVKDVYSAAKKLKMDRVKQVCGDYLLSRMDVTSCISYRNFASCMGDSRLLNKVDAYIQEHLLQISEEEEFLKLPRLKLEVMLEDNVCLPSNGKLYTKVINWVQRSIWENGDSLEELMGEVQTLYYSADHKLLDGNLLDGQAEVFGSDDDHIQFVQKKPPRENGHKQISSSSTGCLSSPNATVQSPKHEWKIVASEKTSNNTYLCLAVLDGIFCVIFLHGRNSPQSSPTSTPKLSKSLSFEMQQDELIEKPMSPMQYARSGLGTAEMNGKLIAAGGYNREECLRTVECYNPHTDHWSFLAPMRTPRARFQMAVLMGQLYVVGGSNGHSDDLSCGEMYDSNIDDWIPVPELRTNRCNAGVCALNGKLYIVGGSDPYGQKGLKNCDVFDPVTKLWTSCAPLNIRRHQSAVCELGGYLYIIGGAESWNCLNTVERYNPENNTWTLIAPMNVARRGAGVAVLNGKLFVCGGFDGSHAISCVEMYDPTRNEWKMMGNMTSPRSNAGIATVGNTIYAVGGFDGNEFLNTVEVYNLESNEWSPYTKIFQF

[4] = target: T4, kelch like ECH associated protein 1, transcript variant 1 (human, UniProt Q14145 1-624); test: protein array
T4 construct: on protein array; also called KEAP1

cancer/testis antigen 1A = target: T5, cancer/testis antigen 1A (human, UniProt P78358 1-180); test: protein array
T5 construct: on protein array; also called CTAG1A

[5] = target: T6, aarF domain containing kinase 5 (human, UniProt Q3MIX3 1-580); test: protein array
T6 construct: on protein array; also called ADCK5

[6] = target: T7, ubiquilin 1, transcript variant 2 (human, UniProt Q9UMX0 2-589)
T7 construct: HuProt array protein, full-length recombinant from yeast; also called UBQLN1

[7] = target: T8, ubiquilin 1, transcript variant 2 (human, UniProt Q9UMX0 2-589); test: protein array
T8 construct: on protein array; also called UBQLN1

[8] = target: T9, quinoid dihydropteridine reductase, transcript variant 1 (human, UniProt P09417 2-244); test: protein array
T9 construct: on protein array; also called QDPR
T9 sequence: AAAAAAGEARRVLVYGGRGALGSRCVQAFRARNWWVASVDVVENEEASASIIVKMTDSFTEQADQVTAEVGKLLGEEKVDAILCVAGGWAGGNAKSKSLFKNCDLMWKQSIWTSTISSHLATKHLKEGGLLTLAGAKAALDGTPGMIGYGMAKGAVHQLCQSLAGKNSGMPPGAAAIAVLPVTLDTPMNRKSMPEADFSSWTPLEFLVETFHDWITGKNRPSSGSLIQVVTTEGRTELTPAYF

[9] = target: T10, quinoid dihydropteridine reductase, transcript variant 1 (human, UniProt P09417 2-244)
T10 construct: HuProt array protein, full-length recombinant from yeast; also called QDPR
T10 sequence: T9 sequence

T4 sequence (Q14145 whole entry, change not shown): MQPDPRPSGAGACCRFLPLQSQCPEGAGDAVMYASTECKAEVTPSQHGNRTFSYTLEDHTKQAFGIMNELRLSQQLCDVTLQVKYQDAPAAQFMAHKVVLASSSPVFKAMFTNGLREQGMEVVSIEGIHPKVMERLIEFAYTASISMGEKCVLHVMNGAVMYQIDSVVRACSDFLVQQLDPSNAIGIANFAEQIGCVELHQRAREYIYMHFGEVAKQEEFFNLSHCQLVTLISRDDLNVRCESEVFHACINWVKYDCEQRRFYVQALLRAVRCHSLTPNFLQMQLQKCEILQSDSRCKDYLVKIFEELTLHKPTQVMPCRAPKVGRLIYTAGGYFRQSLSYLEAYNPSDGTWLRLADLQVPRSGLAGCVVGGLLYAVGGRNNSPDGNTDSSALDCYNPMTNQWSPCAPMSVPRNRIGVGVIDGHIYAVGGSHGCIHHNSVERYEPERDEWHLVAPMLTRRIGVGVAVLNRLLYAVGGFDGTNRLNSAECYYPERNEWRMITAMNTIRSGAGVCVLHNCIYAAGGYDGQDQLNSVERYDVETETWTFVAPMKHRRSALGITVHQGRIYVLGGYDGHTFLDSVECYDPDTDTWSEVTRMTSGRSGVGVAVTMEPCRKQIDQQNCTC
T5 sequence (P78358 whole entry): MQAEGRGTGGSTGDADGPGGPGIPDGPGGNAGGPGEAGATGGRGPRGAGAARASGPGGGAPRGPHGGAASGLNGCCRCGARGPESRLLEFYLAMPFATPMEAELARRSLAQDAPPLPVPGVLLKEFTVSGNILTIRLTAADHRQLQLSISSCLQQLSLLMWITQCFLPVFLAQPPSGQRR
T6 sequence (Q3MIX3 other isoform, or with tags, fused parts or gaps limits assumed): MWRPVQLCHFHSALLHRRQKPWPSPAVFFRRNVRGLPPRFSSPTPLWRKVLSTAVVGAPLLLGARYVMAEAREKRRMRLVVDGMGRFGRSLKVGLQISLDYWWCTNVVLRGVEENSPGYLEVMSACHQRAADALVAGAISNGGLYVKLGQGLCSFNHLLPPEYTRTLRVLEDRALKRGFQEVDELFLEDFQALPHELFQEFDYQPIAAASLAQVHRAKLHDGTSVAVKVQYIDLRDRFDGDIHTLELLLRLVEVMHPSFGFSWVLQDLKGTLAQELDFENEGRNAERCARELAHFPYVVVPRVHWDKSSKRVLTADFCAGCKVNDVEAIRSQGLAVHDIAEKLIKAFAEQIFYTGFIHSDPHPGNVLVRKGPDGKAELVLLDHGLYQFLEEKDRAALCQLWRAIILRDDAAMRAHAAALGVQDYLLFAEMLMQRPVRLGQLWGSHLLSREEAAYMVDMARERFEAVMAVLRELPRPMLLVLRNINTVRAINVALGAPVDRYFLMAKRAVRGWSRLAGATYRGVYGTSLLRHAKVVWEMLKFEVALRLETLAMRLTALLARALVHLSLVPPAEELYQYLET

B1: TTES1001 (antibody, V domains shown)
VH: PVQLVQSGAEVKKPGSSVQVSCKGSGGTFSEYGISWLRQAPGQGLEWIGGIIPVLGIPNYAQKFRGRVTITADESTGSAYMEVSSLRSEDTAVYYCAREGLRLARGWFHPWGQGTLVTVTS
VL: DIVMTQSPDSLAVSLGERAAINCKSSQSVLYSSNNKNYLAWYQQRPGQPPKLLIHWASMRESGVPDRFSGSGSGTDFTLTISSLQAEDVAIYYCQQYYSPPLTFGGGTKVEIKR
notes: VH/VL tied via antigen in summary, not by name in this stretch
B1: binds [1].

B2: TTES1011 (antibody, V domains shown)
VH: PVTLRESGPALVKPTQTLTLTCTFSGFSLSTSGMCVSWIRQPPGKALEWLARIDWDDDKYYSTSLKTRLTISKDTSKNQVVLTMTNMDPVDTATYYCARMQIVATTQTYYYYYGMDVWGQGTTVTVSS
VL: PAVLTQPPSVSGAPGQRVTISCTGSSSNIGAGYDVHWYQQLPGTAPKLLIYGNSNRPSGVPDRFSGSKSGTSASLAITGLQAEDEADYYCQSYDSSLSGSGVFGGGTKLTVLG
B2: binds [2].

B3: TCER1004 (antibody, V domains shown)
VH: VVQLVESGGGLVQPGGSLRLSCAASGFTFSSYSMNWVRQAPGKGLEWLSYVSSSGSTMYYADSVKGRFTISRDTAKNSLFLQMNSLRAEDTAVYYCAKGGPLRPFDIWGQGTLVTVSS
VL: VIQMTQSPTSLSASVGDRVTITCRASQSISSYLNWYQQKLGKAPKLLIYAASSLQSGVPSRFSGSGSGTDFTLTISSLQPEDFATYYCQQSYSTSLTFGGGTKVEIKR
notes: VH/VL only
B3: binds [3].

B4: THNS1008 (antibody, V domains shown)
VH: QVQLQESGPGLVKPSQTLSLTCAVSGGSISSGGYPWSWIRQPPGKGLEWIGYISYSGSTDYNPSLKSRVTISLDTSSNQFSLNLSSLTAADTAVYYCARGAAFYYGMDVWGQGTTVTVSS
VL: B3 VL with V1D, T9S, S31T, L40P, A50V, S77G, S95P, L96Y, G100Q, V104L
notes: VH/VL only
B4: binds [4].

B5: TTHY1004 (antibody, V domains shown)
VH: PVQLQESGPGLVKPSQTLSLTCTVSGGSISSGTYYWSWIRQPAGKGLEWIGRIYASGSTNYNPSLKSRVTISVDTSKNQFSLKLTSVTAADTAVYYCARYSGSYPLGFDYWGQGTLVTVSS
VL: DIQMTQSPSSLSASVGDRVTITCRASQSISTYLNWYQQKPGMAPKLLIYAASTLQSGVPSRFSGSGSATDYTLTISSLQPEDFATYYCQQSYNTPLTFGGGTKVDIKR
notes: as for B1
B5: binds (cancer/testis antigen 1A).

B6: TKIC1002 (antibody, V domains shown)
VH: PVQLQESGPGLVKPSETLSLTCTVSGGSISSYYWSWIRQPPGKGLEWIGYLFYSGSTNYNPSLKSRVTISVDTSKNQFSLKLGSVTAADTAVYYCARHRIFGLDVWGQGTTVTVSS
VL: EIVLTQSPGTLSLSLGERATLSCRASQSVSGSHLAWYQQKPGQAPRLLIYDASSRATGIPDRFSGSGSGTEFTLTISRLEPEDFAVYYCQQYGSSPLWFGQGTKVEIK
notes: VH/VL only
B6: binds [5].

B7: TBRE1030 (antibody, V domains shown)
VH: QVQLQESGPGLVKPSQTLSLTCTVSGGSISSGGYYWSWIRQHPGKGLEWIGYIYYSGSTYYNPSLKSRVTISVDTSKNQFSLKLSSVTAADTAVYYCARDLSCSSTSCHDAFDIWGQGTMVTVSS
VL: not shown
notes: detected with anti-human IgG Fc
B7: binds [6].

B8: TBRE1030 (antibody, V domains shown)
VH: B7 VH
VL: not shown
notes: VH/VL only
B8: binds [7].

B9: TMEL1034 (antibody, V domains shown)
VH: QLQLQESGPGLVKPWETLSLSCTVSGGSISSSFFYWGWIRQPPGKGLQWIGNIHYTGSTYYNPSLKSRITMSVDTSKNQFSLKLSSVTAADTAVYYCARHRVGDSPGLHYWGQGTLVTVSS
VL: SYELTQPPSVSVSPGQTARITCSGDALPKKYAFWYQQKSGQAPVLVIYEDSKRPSGIPERFSGSSSGTMATLTISGAQVEDESDYYCYSTDSSGNVWVFGGGTKLTVLG
notes: as for B1
B9: binds [8].

B10: TMEL1034 (antibody, V domains shown)
VH: B9 VH
VL: B9 VL
notes: as for B7
B10: binds [9].

B11: TTES1010 (antibody, V domains shown)
VH: EVQLVESGGGLVQPGGSLRLSCAASGFTFSSYSMNWVRQAPGKGLEWVSYISSSSSTIYYADSVKGRFTISRDNAKNSLYLQMNSLRAEDTAVYYCASLLGGDPDYWGQGTLVTVSS
VL: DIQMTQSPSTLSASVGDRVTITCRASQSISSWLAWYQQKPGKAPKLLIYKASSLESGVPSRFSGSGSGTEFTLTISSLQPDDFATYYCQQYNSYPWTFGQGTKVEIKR
notes: as for B1
B11: binds [1].

B12: TBLA1012 (antibody, V domains shown)
VH: LLQLVESGGGVVQPGRSLRLSCAASGFTFTRHGFHWVRQAPGKGLEWVAVISSDGRKIHYTDSVKGRFVISRDDSDNTVYLHMNSLRLGDTALYYCARDSGGTPGPYWGQGTLVTVSS
VL: DVVMTQSPLSLPVTLGQPASISCRSSQSLVHSDGNTYLNWFQQRPGQSPRRLIYMVSNRDSGVPDRFSGSGSGTDFTLKISRVEAEDVGVYYCLQGTHWPPTIGQGTKVEIE
notes: VH/VL only
B12: binds (cancer/testis antigen 1A).

B13: TTES1009 (antibody, V domains shown)
VH: EVQLVESGGGLVQPGGSLRLSCAASGFTFSSYEMNWVRQAPGKGLEWVSYISSSGSTIYYADSVKGRFTISRDNAKNSLYLQMNSLRAEDTAVYYCARRGFYYYYGMDVWGQGTTVTVSS
VL: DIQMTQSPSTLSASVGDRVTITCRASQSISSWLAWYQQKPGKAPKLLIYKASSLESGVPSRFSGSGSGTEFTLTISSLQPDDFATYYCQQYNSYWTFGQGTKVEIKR
notes: as for B1
B13: binds [5].

B14: TOVA1008 (antibody, V domains shown)
VH: ELQLVESGGGLVQPGGSLRLSCAASGFTFSSYWMSWVRQAPGKGLEWVANINQDGGEKYYVDSVKGRFTISRDNAKNSLYLQMNSLRAEDTAVYYCAHYYYDSSGYYQNAEYFQYWGQGTLVTVSS
VL: DIQMTQSPPSLSASVGDRVTITCQASQDISNYLNWYQQKPGKTPKLLIYAASTLETGVPSRFSGSGSGTDFTFTINSLQPEDIATYYCQQYDSLPLTFGGGTKVEIKR
B14: binds [2].

B15: TLUS1001 (antibody, V domains shown)
VH: QVQLQESGPGLVKPSETLSLTCTVSGDSISSNYWSWIRQPPGKGLEWIGYIYYSGSTNYNPSLKSRVTISVDTSKNQFSVKLSSVTAADTAVYYCARYGDYSFDPWGQGTLVTVSS
VL: not shown
notes: as for B1
B15: binds [8].

B16: TLUS1001 (antibody, V domains shown)
VH: B15 VH
VL: not shown
notes: as for B7
B16: binds [9].

B17: TCOL1007 (antibody, V domains shown)
VH: PVQLVESGGGVVQPGRSLRLSCAASGFTFSNYGMHWVRQAPGKGLEWVAVISDDGNDKDNADSVKGRFTISRDNSKNTLYLRMNSLRREDTAVYYCARDGFDYWGQGTLVTVSS
VL: DIVMTQTPLSMPVTPGEPASISCRSSQSLLDSDDGKTYLDWYLQKPGQSPQLLIYTVSYRASGVPDRFSGSGSGTDFTLKISRVEAEDVGVYYCMQRIEFPFTFGPGTKVDIKR
notes: VH/VL only
B17: binds [4].

Source: patent publication US20220204643A1 (published 2022)
